Measured values taken from publication PMC5913134, “The IL-33-PIN1-IRAK-M axis is critical for type 2 immunity in IL-33-induced allergic airway inflammation” (Nature Communications, 2018).
Where no end group is shown, it is not given here. [ ]: non-standard residue; d: D form. pS = N[C@@H](COP(=O)(O)O)C(=O)O

Target: T1, 15N-labeled PIN1 WW domain (PIN1 residues 1-50) (UniProt Q13526 1-50)
T1 construct: PIN1 residues 1-50 (WW domain); The methods describe a pET28 His6-TEV construct for PIN1; also called 15N-PIN1-WW; source: expressed and purified, 15N-labeled
T1 sequence (Q13526 1-50): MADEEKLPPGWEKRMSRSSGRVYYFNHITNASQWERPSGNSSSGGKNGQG
Assay: NMR titration; 1H-15N HSQC of 15N-PIN1-WW at constant concentration, peptide serially diluted (reverse titration), 25 °C, 600 MHz; fit to a simple bimolecular model; apparent
Conditions: both partners purified

B1: IRAK-M-pS110 peptide (IRAK-M residues 103-124 with Ser110 phosphorylated) (peptide)
peptide: TNYGAVL[pS]PSEKSYQEGGFPNI
notes: IRAK-M (IRAK3) residues 103-124; also called IRAK-M phosphopeptide; pIRAK-M-pS110; source: synthetic peptide (Tufts University Core Facility)
With B1 the Kd was 60.7 µM.
